Source: publication PMC2756588

T1: Hse1, P38753
T1 sequence (P38753 208-285, looked up): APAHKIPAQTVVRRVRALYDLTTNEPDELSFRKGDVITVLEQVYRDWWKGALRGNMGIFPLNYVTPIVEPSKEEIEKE

T2: Myo5, Q04439
T2 sequence (Q04439 1072-1160, looked up): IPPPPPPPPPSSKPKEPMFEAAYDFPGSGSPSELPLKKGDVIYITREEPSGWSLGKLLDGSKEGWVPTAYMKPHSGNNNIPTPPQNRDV

T3: Cyk3, Q07533
T3 sequence (Q07533 1-83, looked up): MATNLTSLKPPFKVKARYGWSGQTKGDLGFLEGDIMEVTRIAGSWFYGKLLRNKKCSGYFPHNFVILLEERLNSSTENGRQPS

T4: Sla1-2, P32790
T4 sequence (P32790 60-140, looked up): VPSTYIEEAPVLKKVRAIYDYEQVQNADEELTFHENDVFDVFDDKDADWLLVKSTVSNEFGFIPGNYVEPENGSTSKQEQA

T5: Bbc1, P47068
T5 sequence (P47068 1-78, looked up): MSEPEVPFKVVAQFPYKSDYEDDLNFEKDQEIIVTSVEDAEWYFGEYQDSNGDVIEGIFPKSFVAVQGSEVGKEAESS

T6: Pex13, P80667
T6 sequence (P80667 295-386, looked up): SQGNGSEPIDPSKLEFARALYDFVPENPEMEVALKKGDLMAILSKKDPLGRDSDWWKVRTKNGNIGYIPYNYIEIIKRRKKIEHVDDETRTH

T7: Fus1, P11710
T7 sequence (P11710 432-512, looked up): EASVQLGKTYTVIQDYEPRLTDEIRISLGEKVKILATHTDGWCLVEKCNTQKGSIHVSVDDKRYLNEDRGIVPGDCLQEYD

T8: Pin3, Q06449
T8 sequence (Q06449 53-122, looked up): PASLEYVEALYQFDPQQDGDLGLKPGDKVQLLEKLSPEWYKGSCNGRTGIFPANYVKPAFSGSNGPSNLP

T9: Sla1-3, P32790
T9 sequence (P32790 344-424, looked up): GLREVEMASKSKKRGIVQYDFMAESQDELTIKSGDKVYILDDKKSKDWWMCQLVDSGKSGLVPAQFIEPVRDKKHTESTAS

T10: Lsb1, P53281
T10 sequence (P53281 45-122, looked up): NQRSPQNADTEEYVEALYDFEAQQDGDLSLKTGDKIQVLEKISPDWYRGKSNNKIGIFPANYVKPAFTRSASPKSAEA

T11: Cdc25, P04821
T11 sequence (P04821 50-136, looked up): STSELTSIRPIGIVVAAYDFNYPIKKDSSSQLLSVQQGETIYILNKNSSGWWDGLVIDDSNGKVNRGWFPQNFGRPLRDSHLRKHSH

T12: Bzz1-1, P38822
T12 sequence (P38822 478-572, looked up): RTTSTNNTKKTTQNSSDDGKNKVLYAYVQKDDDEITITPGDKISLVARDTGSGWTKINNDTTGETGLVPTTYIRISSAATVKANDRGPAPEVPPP

T13: Boi2, P39969
T13 sequence (P39969 32-116, looked up): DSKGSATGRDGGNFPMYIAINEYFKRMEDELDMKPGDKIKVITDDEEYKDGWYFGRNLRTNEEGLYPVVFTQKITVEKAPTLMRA

T14: Nbp2, Q12163
T14 sequence (Q12163 103-180, looked up): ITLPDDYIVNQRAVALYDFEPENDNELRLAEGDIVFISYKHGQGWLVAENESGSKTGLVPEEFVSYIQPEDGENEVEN

T15: Lsb3, P43603
T15 sequence (P43603 385-451, looked up): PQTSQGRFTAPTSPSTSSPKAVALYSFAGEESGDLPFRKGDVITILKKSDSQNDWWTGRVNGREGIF

T16: Boi1, P38041
T16 sequence (P38041 1-86, looked up): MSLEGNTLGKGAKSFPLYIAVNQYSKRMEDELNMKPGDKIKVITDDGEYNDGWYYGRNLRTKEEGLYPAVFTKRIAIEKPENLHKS

T17: Lsb4, P32793
T17 sequence (P32793 402-468, looked up): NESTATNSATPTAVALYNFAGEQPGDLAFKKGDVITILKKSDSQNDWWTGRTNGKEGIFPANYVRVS

T18: Abp1, P15891
T18 sequence (P15891 535-592, looked up): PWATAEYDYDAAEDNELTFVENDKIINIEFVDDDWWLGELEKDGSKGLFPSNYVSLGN

T19: Hof1, Q05080
T19 sequence (Q05080 590-669, looked up): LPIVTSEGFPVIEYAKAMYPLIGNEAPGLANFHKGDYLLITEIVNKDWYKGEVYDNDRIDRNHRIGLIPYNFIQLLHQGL

T20: Bzz1-2, P38822
T20 sequence (P38822 568-633, looked up): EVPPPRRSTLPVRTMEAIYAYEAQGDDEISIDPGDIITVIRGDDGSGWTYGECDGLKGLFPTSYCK

T21: Bud14, P27637
T21 sequence (P27637 247-328, looked up): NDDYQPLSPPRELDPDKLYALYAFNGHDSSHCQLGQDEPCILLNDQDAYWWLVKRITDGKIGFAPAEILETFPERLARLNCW


Target: T1, Hse1, P38753
Assay: SPOT array
Details: median of control spots 1727

Row | SPOT intensity | Binder
1 | 36 | DKSRPPRPPPKPLHL
2 | 0 | PHNPSPFFPPPDFND
3 | 539 | RPPRPPPKPLHLRTE

Target: T2, Myo5, Q04439
Assay: SPOT array
Details: median of control spots 471

Row | SPOT intensity | Binder
4 | 44 | DKSRPPRPPPKPLHL
5 | 244 | PHNPSPFFPPPDFND
6 | 33 | RPPRPPPKPLHLRTE

Target: T3, Cyk3, Q07533
Assay: SPOT array
Details: median of control spots 1451

Row | SPOT intensity | Binder
7 | 0 | DKSRPPRPPPKPLHL
8 | 0 | PHNPSPFFPPPDFND
9 | 0 | RPPRPPPKPLHLRTE

Target: T4, Sla1-2, P32790
Assay: SPOT array
Details: median of control spots 712

Row | SPOT intensity | Binder
10 | 0 | DKSRPPRPPPKPLHL
11 | 0 | PHNPSPFFPPPDFND
12 | 1 | RPPRPPPKPLHLRTE

Target: T5, Bbc1, P47068
Assay: SPOT array
Details: median of control spots 796

Row | SPOT intensity | Binder
13 | 5 | DKSRPPRPPPKPLHL
14 | 0 | PHNPSPFFPPPDFND
15 | 15 | RPPRPPPKPLHLRTE

Target: T6, Pex13, P80667
Assay: SPOT array
Details: median of control spots 1341

Row | SPOT intensity | Binder
16 | 144 | DKSRPPRPPPKPLHL
17 | 70 | PHNPSPFFPPPDFND
18 | 479 | RPPRPPPKPLHLRTE

Target: T7, Fus1, P11710
Assay: SPOT array
Details: median of control spots 1200

Row | SPOT intensity | Binder
19 | 0 | DKSRPPRPPPKPLHL
20 | 0 | PHNPSPFFPPPDFND
21 | 0 | RPPRPPPKPLHLRTE

Target: T8, Pin3, Q06449
Assay: SPOT array
Details: median of control spots 2171

Row | SPOT intensity | Binder
22 | 0 | DKSRPPRPPPKPLHL
23 | 0 | PHNPSPFFPPPDFND
24 | 5 | RPPRPPPKPLHLRTE

Target: T9, Sla1-3, P32790
Assay: SPOT array
Details: median of control spots 5475

Row | SPOT intensity | Binder
25 | 0 | DKSRPPRPPPKPLHL
26 | 0 | PHNPSPFFPPPDFND
27 | 43 | RPPRPPPKPLHLRTE

Target: T10, Lsb1, P53281
Assay: SPOT array
Details: median of control spots 388

Row | SPOT intensity | Binder
28 | 4 | DKSRPPRPPPKPLHL
29 | 0 | PHNPSPFFPPPDFND
30 | 266 | RPPRPPPKPLHLRTE

Target: Bem1-2, P29366
Assay: SPOT array
Details: median of control spots 4347

Sequence of Bem1-2, P29366 (P29366 139-227): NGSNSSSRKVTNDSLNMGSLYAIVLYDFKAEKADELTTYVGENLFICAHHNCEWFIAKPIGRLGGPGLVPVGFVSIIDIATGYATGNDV

Row | SPOT intensity | Binder
31 | 57 | DKSRPPRPPPKPLHL
32 | 0 | PHNPSPFFPPPDFND
33 | 458 | RPPRPPPKPLHLRTE

Target: Bem1-1, P29366
Assay: SPOT array
Details: median of control spots 4282

Sequence of Bem1-1, P29366 (P29366 55-141): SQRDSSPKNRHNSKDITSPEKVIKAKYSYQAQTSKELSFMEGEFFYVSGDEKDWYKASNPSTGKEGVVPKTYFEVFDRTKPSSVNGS

Row | SPOT intensity | Binder
34 | 0 | DKSRPPRPPPKPLHL
35 | 0 | PHNPSPFFPPPDFND
36 | 4 | RPPRPPPKPLHLRTE

Target: Rvs167, P39743
Assay: SPOT array
Details: median of control spots 2707

Sequence of Rvs167, P39743 (P39743 419-482): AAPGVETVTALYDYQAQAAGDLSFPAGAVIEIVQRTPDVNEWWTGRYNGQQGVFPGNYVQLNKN

Row | SPOT intensity | Binder
37 | 0 | DKSRPPRPPPKPLHL
38 | 0 | PHNPSPFFPPPDFND
39 | 12 | RPPRPPPKPLHLRTE

Target: T11, Cdc25, P04821
Assay: SPOT array
Details: median of control spots 969

Row | SPOT intensity | Binder
40 | 0 | DKSRPPRPPPKPLHL
41 | 0 | PHNPSPFFPPPDFND
42 | 0 | RPPRPPPKPLHLRTE

Target: T12, Bzz1-1, P38822
Assay: SPOT array
Details: median of control spots 4446

Row | SPOT intensity | Binder
43 | 36 | DKSRPPRPPPKPLHL
44 | 0 | PHNPSPFFPPPDFND
45 | 30 | RPPRPPPKPLHLRTE

Target: T13, Boi2, P39969
Assay: SPOT array
Details: median of control spots 1161

Row | SPOT intensity | Binder
46 | 0 | DKSRPPRPPPKPLHL
47 | 0 | PHNPSPFFPPPDFND
48 | 3 | RPPRPPPKPLHLRTE

Target: T14, Nbp2, Q12163
Assay: SPOT array
Details: median of control spots 357

Row | SPOT intensity | Binder
49 | 0 | DKSRPPRPPPKPLHL
50 | 0 | PHNPSPFFPPPDFND
51 | 86 | RPPRPPPKPLHLRTE

Target: T15, Lsb3, P43603
Assay: SPOT array
Details: median of control spots 406

Row | SPOT intensity | Binder
52 | 216 | DKSRPPRPPPKPLHL
53 | 0 | PHNPSPFFPPPDFND
54 | 306 | RPPRPPPKPLHLRTE

Target: Myo3, P36006
Assay: SPOT array
Details: median of control spots 468

Row | SPOT intensity | Binder
55 | 160 | DKSRPPRPPPKPLHL
56 | 319 | PHNPSPFFPPPDFND
57 | 121 | RPPRPPPKPLHLRTE

Target: T16, Boi1, P38041
Assay: SPOT array
Details: median of control spots 1162

Row | SPOT intensity | Binder
58 | 0 | DKSRPPRPPPKPLHL
59 | 0 | PHNPSPFFPPPDFND
60 | 0 | RPPRPPPKPLHLRTE

Target: T17, Lsb4, P32793
Assay: SPOT array
Details: median of control spots 397

Row | SPOT intensity | Binder
61 | 177 | DKSRPPRPPPKPLHL
62 | 0 | PHNPSPFFPPPDFND
63 | 201 | RPPRPPPKPLHLRTE

Target: T18, Abp1, P15891
Assay: SPOT array
Details: median of control spots 935

Row | SPOT intensity | Binder
64 | 675 | DKSRPPRPPPKPLHL
65 | 0 | PHNPSPFFPPPDFND
66 | 692 | RPPRPPPKPLHLRTE

Target: Sho1, P40073
Assay: SPOT array
Details: median of control spots 1148

Sequence of Sho1, P40073 (P40073 287-367): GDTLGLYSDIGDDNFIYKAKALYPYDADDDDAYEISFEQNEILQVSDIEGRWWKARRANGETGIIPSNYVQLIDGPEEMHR

Row | SPOT intensity | Binder
67 | 155 | DKSRPPRPPPKPLHL
68 | 0 | PHNPSPFFPPPDFND
69 | 780 | RPPRPPPKPLHLRTE

Target: T19, Hof1, Q05080
Assay: SPOT array
Details: median of control spots 4086

Row | SPOT intensity | Binder
70 | 0 | DKSRPPRPPPKPLHL
71 | 0 | PHNPSPFFPPPDFND
72 | 3 | RPPRPPPKPLHLRTE

Target: T20, Bzz1-2, P38822
Assay: SPOT array
Details: median of control spots 4538

Row | SPOT intensity | Binder
73 | 1 | DKSRPPRPPPKPLHL
74 | 0 | PHNPSPFFPPPDFND
75 | 38 | RPPRPPPKPLHLRTE

Target: T21, Bud14, P27637
Assay: SPOT array
Details: median of control spots 956

Row | SPOT intensity | Binder
76 | 1 | DKSRPPRPPPKPLHL
77 | 0 | PHNPSPFFPPPDFND
78 | 0 | RPPRPPPKPLHLRTE

Target: GST
Assay: SPOT array
Details: median of control spots 978

Row | SPOT intensity | Binder
79 | 0 | DKSRPPRPPPKPLHL
80 | 0 | PHNPSPFFPPPDFND
81 | 0 | RPPRPPPKPLHLRTE
